Earlier results on two substances are cited in paper PMC7456198.

Read-outs that look alike come from different tables or passages of the source.

The target in series [1] is GLP-1 receptor (Homo sapiens) (UniProt P43220).
For series [2] the target is unchanged. The source holds these as a separate data set.

Chain of UniProt P43220 (P43220 24-463): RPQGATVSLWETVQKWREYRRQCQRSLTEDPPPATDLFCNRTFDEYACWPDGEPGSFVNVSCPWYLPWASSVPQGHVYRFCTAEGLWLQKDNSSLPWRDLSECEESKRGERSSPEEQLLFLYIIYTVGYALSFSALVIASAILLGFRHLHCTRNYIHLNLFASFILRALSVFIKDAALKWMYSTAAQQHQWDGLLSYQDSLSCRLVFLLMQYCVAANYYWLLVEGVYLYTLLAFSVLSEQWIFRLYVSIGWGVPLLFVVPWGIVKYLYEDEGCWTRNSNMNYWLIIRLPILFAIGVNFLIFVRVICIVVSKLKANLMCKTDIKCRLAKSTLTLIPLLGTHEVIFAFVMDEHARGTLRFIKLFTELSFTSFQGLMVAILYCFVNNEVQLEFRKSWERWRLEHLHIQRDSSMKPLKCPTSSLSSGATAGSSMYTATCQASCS

Broadly, the Kd is the equilibrium constant for the complex coming apart. As to Semaglutide (from UniProt P01275), the Kd in series [1] was 0.38 nM.
On to Liraglutide (from UniProt P01275), for which the Kd in series [2] is 0.11 nM.
